Laboratory results as given in article PMC9984425, “An autoimmune pleiotropic SNP modulates IRF5 alternative promoter usage through ZBTB3-mediated chromatin looping”.

Target: ZBTB3 recombinant protein (UniProt Q9H5J0 1-574)
Experiment: EMSA; 10 ng recombinant protein; EMSA: 20 nM biotin probe, 100 mM Tris pH 7.5, 55 mM KCl, 2.5 mM MgCl2, 1 mM DTT, 500 ng poly(dI-dC), 5% glycerol, 0.05% NP-40, 20 ul, room temperature 20 min; 500x unlabeled competitor; 6% native PAGE, 0.5x TBE
Details: protein: commercial; chain copies: 2; label: 5' biotin on strand 1; blunt

Chain of ZBTB3 recombinant protein (Q9H5J0 whole entry): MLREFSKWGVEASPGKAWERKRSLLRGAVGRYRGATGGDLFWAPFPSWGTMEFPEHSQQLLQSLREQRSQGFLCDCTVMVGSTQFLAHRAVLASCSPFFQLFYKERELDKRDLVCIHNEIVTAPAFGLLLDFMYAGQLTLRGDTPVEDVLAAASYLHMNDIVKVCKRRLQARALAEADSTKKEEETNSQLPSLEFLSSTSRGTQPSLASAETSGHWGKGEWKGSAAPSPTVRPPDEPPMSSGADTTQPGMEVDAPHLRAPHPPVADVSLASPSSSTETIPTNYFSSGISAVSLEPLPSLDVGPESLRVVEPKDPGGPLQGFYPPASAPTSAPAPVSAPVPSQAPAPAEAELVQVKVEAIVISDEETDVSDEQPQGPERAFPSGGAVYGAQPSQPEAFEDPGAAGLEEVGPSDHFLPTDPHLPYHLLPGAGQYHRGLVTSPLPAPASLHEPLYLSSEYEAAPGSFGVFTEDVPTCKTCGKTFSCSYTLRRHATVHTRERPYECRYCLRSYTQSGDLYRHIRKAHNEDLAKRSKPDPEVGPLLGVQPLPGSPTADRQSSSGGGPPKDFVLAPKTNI

Binder	binding result
rs4728142-A (dsDNA) DNA 1: CCAAAAAGCTCTGAGCCAGTGTTAGTAAGAAATGG DNA 2: CCATTTCTTACTAACACTGGCTCAGAGCTTTTTGG	binds
IRF5-promoter (dsDNA) DNA 1: CCGGGAGCCCCGCTGGAGGCTGGCTTGGA DNA 2: TCCAAGCCAGCCTCCAGCGGGGCTCCCGG	binds
